Measured values as given in PMC11729909, “FOXP1 phosphorylation antagonizes its O-GlcNAcylation in regulating ATR activation in response to replication stress” (The EMBO Journal, 2024).

Target: T1, His-tagged OGT (human, UniProt O15294 1-1046)
T1 construct: OGT, human, full length; Vector pet28a; also called His-OGT; pet28a-OGT; source: E. coli, purified
T1 sequence (looked up): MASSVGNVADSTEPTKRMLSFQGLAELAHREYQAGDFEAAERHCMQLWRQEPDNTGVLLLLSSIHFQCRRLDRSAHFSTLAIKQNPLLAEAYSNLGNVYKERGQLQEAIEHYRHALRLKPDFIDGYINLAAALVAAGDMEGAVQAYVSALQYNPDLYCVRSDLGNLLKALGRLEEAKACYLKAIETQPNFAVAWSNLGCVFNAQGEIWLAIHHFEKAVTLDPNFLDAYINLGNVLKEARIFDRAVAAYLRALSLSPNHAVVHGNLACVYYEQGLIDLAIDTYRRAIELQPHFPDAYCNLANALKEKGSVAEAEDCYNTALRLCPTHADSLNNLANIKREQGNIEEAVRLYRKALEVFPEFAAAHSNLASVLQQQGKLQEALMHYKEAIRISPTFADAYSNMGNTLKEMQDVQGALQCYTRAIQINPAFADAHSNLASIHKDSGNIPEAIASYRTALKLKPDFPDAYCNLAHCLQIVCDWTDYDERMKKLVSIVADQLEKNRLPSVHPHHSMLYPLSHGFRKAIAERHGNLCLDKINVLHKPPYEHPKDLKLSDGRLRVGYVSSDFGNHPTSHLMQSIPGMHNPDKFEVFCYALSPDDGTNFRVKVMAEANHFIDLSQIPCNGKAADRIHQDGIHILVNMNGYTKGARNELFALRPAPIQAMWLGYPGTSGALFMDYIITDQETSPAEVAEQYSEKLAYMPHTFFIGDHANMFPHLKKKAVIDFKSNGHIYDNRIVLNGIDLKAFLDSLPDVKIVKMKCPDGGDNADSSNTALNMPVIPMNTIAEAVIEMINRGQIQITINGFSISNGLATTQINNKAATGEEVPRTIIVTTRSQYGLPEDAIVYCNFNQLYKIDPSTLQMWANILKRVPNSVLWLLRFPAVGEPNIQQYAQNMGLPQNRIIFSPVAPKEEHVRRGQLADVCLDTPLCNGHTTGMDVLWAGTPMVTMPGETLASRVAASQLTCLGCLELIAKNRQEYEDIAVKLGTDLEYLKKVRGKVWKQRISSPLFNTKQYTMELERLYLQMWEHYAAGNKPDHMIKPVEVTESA
Experiment: pull-down; GST pull-down: His-tagged OGT incubated with wild-type GST-tagged FOXP1 or its mutant lacking AA 556–610, glutathione beads, immunoblot
Settings: both partners purified

B1: GST-tagged FOXP1 (wild type, full length) (natural protein, human, UniProt Q9H334 1-677, looked up)
chain: MMQESGTETKSNGSAIQNGSGGSNHLLECGGLREGRSNGETPAVDIGAADLAHAQQQQQQALQVARQLLLQQQQQQQVSGLKSPKRNDKQPALQVPVSVAMMTPQVITPQQMQQILQQQVLSPQQLQVLLQQQQALMLQQQQLQEFYKKQQEQLQLQLLQQQHAGKQPKEQQQVATQQLAFQQQLLQMQQLQQQHLLSLQRQGLLTIQPGQPALPLQPLAQGMIPTELQQLWKEVTSAHTAEETTGNNHSSLDLTTTCVSSSAPSKTSLIMNPHASTNGQLSVHTPKRESLSHEEHPHSHPLYGHGVCKWPGCEAVCEDFQSFLKHLNSEHALDDRSTAQCRVQMQVVQQLELQLAKDKERLQAMMTHLHVKSTEPKAAPQPLNLVSSVTLSKSASEASPQSLPHTPTTPTAPLTPVTQGPSVITTTSMHTVGPIRRRYSDKYNVPISSADIAQNQEFYKNAEVRPPFTYASLIRQAILESPEKQLTLNEIYNWFTRMFAYFRRNAATWKNAVRHNLSLHKCFVRVENVKGAVWTVDEVEFQKRRPQKISGNPSLIKNMQSSHAYCTPLNAALQASMAENSIPLYTTASMGNPTLGNLASAIREELNGAMEHTNSNESDSSPGRSPMQAVHPVHVKEEPLDPEEAEGPLSLVTTANHSPDFDHDRDYEDEPVNEDME
notes: FOXP1, human, full length; Vector pGEX-4T-1; also called GST-FOXP1; pGEX-4T-1-FOXP1; source: E. coli, purified
- binding result: binds
